Measured values: PMC11381544 (Nature Communications, 2024)
Numbering of substitutions follows the chain as printed. In names and notes the source's numbering stands.

B1: PCP-P3H1D589A: PCP complex with P3H1 active-site mutation D589A (protein)
chain: EVESEAGWGMVTPDLLFAEGTAAYARGDWPGVVLSMERALRSRAALRALRLRCRTQCAADFPWELDPDWSPSPAQASGAAALRDLSFFGGLLRRAACLRRCLGPPAAHSLSEEMELEFRKRSPYNYLQVAYFKINKLEKAVAAAHTFFVGNPEHMEMQQNLDYYQTMSGVKEADFKDLETQPHMQEFRLGVRLYSEEQPQEAVPHLEAALQEYFVAYEECRALCEGPYDYDGYNYLEYNADLFQAITDHYIQVLNCKQNCVTELASHPSREKPFEDFLPSHYNYLQFAYYNIGNYTQAVECAKTYLLFFPNDEVMNQNLAYYAAMLGEEHTRSIGPRESAKEYRQRSLLEKELLFFAYDVFGIPFVDPDSWTPEEVIPKRLQEKQKSERETAVRISQEIGNLMKEIETLVEEKTKESLDVSRLTREGGPLLYEGISLTMNSKLLNGSQRVVMDGVISDHECQELQRLTNVAATSGDGYRGQTSPHTPNEKFYGVTVFKALKLGQEGKVPLQSAHLYYNVTEKVRRIMESYFRLDTPLYFSYSHLVCRTAIEEVQAERKDDSHPVHVANCILNAETLVCVKEPPAYTFRDYSAILYLNGDFDGGNFYFTELDAKTVTAEVQPQCGRAVGFSSGTENPHGVKAVTRGQRCAIALWFTLDPRHSERDRVQADDLVKMLFSPEEMDLSQEQPLDAQQGPPEPAQESLSGSESKPKDEL
B2: PCP-P3H1H587A: PCP complex with P3H1 active-site mutation H587A (protein)
chain: B1 chain with H565A, A567D
B3: PCP-P3H1H659A: PCP complex with P3H1 active-site mutation H659A (protein)
chain: B1 chain with A567D, H637A
B4: PCP-P3H1W675L: PCP complex with OI-related P3H1 mutation W675L near the active site (protein)
chain: B1 chain with A567D, W653L
B5: P3H1/CRTAP: purified P3H1/CRTAP binary complex obtained when PPIB was excluded from co-transfection (protein)
chain 1: B1 chain with A567D
chain 2: QYERYSFRSFPRDELMPLESAYRHALDKYSGEHWAESVGYLEISLRLHRLLRDSEAFCHRNCSAAPQPEPAAGLASYPELRLFGGLLRRAHCLKRCKQGLPAFRQSQPSREVLADFQRREPYKFLQFAYFKANNLPKAIAAAHTFLLKHPDDEMMKRNMAYYKSLPGAEDYIKDLETKSYESLFIRAVRAYNGENWRTSITDMELALPDFFKAFYECLAACEGSREIKDFKDFYLSIADHYVEVLECKIQCEENLTPVIGGYPVEKFVATMYHYLQFAYYKLNDLKNAAPCAVSYLLFDQNDKVMQQNLVYYQYHRDTWGLSDEHFQPRPEAVQFFNVTTLQKELYDFAKENIMDDDEGEVVEYVDDLLELEETS
modifications: left off: twin Strep tag, C-terminal, kept
B6: D106A/D^P3H1 (protein, UniProt Q32P28 23-736, looked up, variant D106A)
Prolyl 3-hydroxylase 1: B1 chain with D84A, A567D
B7: PCP-P3H1R669A: PCP complex with P3H1 active-site mutation R669A (protein)
chain: B1 chain with A567D, R647A
B8: R76D^P3H1 (protein)
chain: B1 chain with R54D, A567D

Columns and labels:
[1] = test system: P3H1 within the PCP complex; experiment: 2-OG dependent oxygenase activity; format: biochemical, human; conditions: Succinate-Glo assay, Fig. 1g, Fig. 3f, Supplementary Fig. 1f
[2] = test system: CRTAP and PPIB; experiment: Co-purification / SDS-PAGE of PCP complex with P3H1 mutants; format: binding, human; conditions: co-expression with CRTAP and PPIB, Supplementary Fig. 1c
[3] = test system: CRTAP; experiment: Strep-tactin pulldown, P3H1 mutants with CRTAP; format: binding, human; conditions: P3H1 mutations at the X-interface, Fig. 2g

Molecule | 2OG-Fe (II) oxygenase / P3H1 activity, in words [1] | PCP complex formation of P3H1 active mutants [2] | 2OG-Fe (II) oxygenase / P3H1 activity, in words ([1]; listed as W675L^P3H1) | formation of the PCP complex [3]
B1 | significantly decreased 2OG-dependent oxygenase activities | could form PCP complex with CRTAP and PPIB |  | 
B2 | significantly decreased 2OG-dependent oxygenase activities | could form PCP complex with CRTAP and PPIB |  | 
B3 | significantly decreased 2OG-dependent oxygenase activities | could form PCP complex with CRTAP and PPIB |  | 
B4 |  |  | reduced enzymatic activities | 
B5 | elevated P3H1 activities |  |  | 
B6 |  |  |  | significantly decrease the formation of the PCP complex
B7 | significantly decreased 2OG-dependent oxygenase activities | could form PCP complex with CRTAP and PPIB |  | 
B8 |  |  |  | significantly decrease the formation of the PCP complex
